Reference: US20250296984A1 (THELPER, published 2025)
Numbering of substitutions follows the chain as printed. Where no end group is shown, it is not given here. The star is where a group is joined. Biotin = O=C1N[C@H]2[C@H](CS[C@H]2CCCCC(=O)*)N1

T1: Bio-Peptide-1 (human cytomegalovirus (4N variant, e.g. …))
T1 construct: also called US28 ECD3 genotype 4N peptide
T1 peptide: Biotin-TKKNNQCMTDYDYLEVS

T2: US28 of HCMV strain DB fused to a C-terminal 6His tag (human cytomegalovirus (HCMV) strain DB, UniProt P69332 1-354)
T2 chain: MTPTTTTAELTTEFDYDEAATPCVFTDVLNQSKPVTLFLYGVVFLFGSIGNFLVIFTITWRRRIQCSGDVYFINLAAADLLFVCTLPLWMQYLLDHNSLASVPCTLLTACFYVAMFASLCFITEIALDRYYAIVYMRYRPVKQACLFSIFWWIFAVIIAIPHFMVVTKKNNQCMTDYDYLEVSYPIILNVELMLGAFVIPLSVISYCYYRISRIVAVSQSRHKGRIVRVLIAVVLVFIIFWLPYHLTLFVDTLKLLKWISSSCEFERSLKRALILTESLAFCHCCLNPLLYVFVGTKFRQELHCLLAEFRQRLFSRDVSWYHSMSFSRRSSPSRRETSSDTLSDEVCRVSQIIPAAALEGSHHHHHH

T3: US28 of HCMV strain TB40/E fused to a C-terminal 6His tag (human cytomegalovirus (HCMV) strain …, UniProt P69332 1-354)
T3 construct: also called TB40/E form of US28
T3 chain: T2 chain with A8T, D15E, E18L, A19G, V24T, I49V, N170D

T4: US28 of HCMV strain Merlin fused to a C-terminal 6His tag (human cytomegalovirus (HCMV) strain …, UniProt F5HF62 1-354)
T4 construct: also called Merlin-encoded US28
T4 sequence: T2 chain with A19D, N170D, S330G

T5: US28 of HCMV strain VHL/E fused to a C-terminal 6His tag (human cytomegalovirus (HCMV) strain …, UniProt P69332 1-354)
T5 construct: also called VHL/E-encoded US28
T5 chain: T2 chain with E18D, A19E, F25L, N170D, R267K, V346A

B1: US28-14-4E4-1E8 (antibody, mouse IgG1, kappa, V domains shown)
VH: EVKLVESGGDLVKPGGSLKLSCAASGFTFSSYAMSWVRQTPEKRLEWVASISSGGRTYYPDSVKGRFTISRDNARNILYLQMSSLRSEDTAIYYCARGGTRHSYGNGFDYWGQGTTLTVSS
VL: QIVLSQSPTIMSASPGEKVTMTCSASSSVSYMHWYQQKSGTSPKRWIYDSSKLASGVPARFSGSGSGTSYSLTISSMEAEDAATYYCQQWTSNPPITFGAGTKLELKR
B2: US28-13-1C10-1G9 (antibody, mouse IgG1, kappa, V domains shown)
VH: EVKLVESGGGLVKPGGSLKLSCAASGFTFSSYAMSWVRQTPEKRLEWVASISSGGSTYYPDSVKGRFTISRDNARNILYLQMSSLRSEDTAMYYCARGGSTMITTGLGFAYWGQGTLVTVSA
VL: B1 VL with S5T, T9A, S50T, T91S, I96L
B3: US28-13-1H3-1A10 (antibody, mouse IgG1, kappa, V domains shown)
VH: EVKLVESGGVLVKPGGSLKFSCAASGFTLSSHALSWVRQTPEKRLEWVASISSRGRTYYPDSVKGRFTVSRDNARNILYLQVSSLRSEDTAMYYCTRGGTHYSYGNGFDFWGQGTTLTVSS
VL: B1 VL with S5T, T9A, A25V, S50T, S76T, T91S, S92N
notes: also called 14-1H3-1A10
B4: US28-13-1C10-1C10 (antibody, mouse IgG1, kappa, V domains shown)
VH: B3 VH with L29F
VL: B1 VL with S5T, T9A, A25V, S50T, S76T, T91S, S92N
B5: 2F5B11-Myc (antibody, V domains shown)
VH: EVQLQESGAELAKPGASVKMSCKASGYTFSSYWIHWIKQRPGQGLEWIGYINPNTAYTEFNQKFMDKATLTADKSSSTAYMQLTSLTSEDSAVYYCARLRSDRTGFAYWGQGTLVTVSA
VL: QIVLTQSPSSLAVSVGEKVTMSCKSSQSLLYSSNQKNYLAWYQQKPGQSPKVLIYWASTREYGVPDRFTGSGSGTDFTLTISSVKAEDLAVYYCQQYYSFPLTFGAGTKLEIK
B6: 4H3C3-Myc (antibody, V domains shown)
VH: QVQLQQSGAELAKPGASVKMSCKASGYTFTSYWMHWVKQRPGQGLEWIGYINPSTGYAEYNQKFKDKATLTADKSSSTAYMQLSSLTSEDSAVYYCARLRFGSSGFAYWGQGTLVTVSS
VL: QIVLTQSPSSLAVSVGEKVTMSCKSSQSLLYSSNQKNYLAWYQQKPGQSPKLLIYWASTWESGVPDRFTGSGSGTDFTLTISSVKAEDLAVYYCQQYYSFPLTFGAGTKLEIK
B7: 7B1F3-Myc (antibody, V domains shown)
VH: EVQLQQSGAELAKPGASVKMSCKASGYTFTNYWMHWVKQRPGQGLEWIGYVNPRTGYTEYNQKFKDKATLTADKSSRTAYMQLSSLTSEDSAVYSCARILNGTGFAYWGQGTLVTVSA
VL: DIVLTQSPSSLTVSVGEKFTMSCKSSQSLLYSSNQKNYLAWYQQKPGQSPKLLIYWASTRESGVPDRFTGSGSGTDFTLAISSVKPEDLAIYYCQQYYSFPLTFGAGTKLEIK
B8: US28-4-2F5B11 (antibody, mouse IgG1, kappa, V domains shown)
VH: B5 VH
VL: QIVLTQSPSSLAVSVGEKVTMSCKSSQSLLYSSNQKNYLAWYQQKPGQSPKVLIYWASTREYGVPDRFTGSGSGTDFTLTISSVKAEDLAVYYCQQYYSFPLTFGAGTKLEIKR
B9: US28-4-4H3C3 (antibody, mouse IgG1, kappa, V domains shown)
VH: B6 VH
VL: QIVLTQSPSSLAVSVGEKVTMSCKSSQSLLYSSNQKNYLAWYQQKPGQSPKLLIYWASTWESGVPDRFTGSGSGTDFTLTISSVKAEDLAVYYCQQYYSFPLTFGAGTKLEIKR
B10: US28-4-7B1F3 (antibody, mouse IgG1, kappa, V domains shown)
VH: B7 VH
VL: DIVLTQSPSSLTVSVGEKFTMSCKSSQSLLYSSNQKNYLAWYQQKPGQSPKLLIYWASTRESGVPDRFTGSGSGTDFTLAISSVKPEDLAIYYCQQYYSFPLTFGAGTKLEIKR
notes: also called mouse 7B1F3; mouse7B1F3

Biological target: T1, Bio-Peptide-1
Test: ELISA, Bio-Peptide-1 coated

Compared with B1, B2 is higher in absorbance: 2.99 for the first, 3.11 for the second.

Going from B3 to B4, the absorbance rises from 3 to 3.11.

Biological target: T2, US28 of HCMV strain DB fused to a …
Test: flow cytometry, processed data of FIG. 33

Compared with B5, B6 is higher in “variation in binding relative to US28 as encoded by VHL/E” value (“variation in binding relative to US28” below): -0.04 for the first, 0.59 for the second.

B7 was tested, and the “variation in binding relative to US28” value was 0.64.

Biological target: T3, US28 of HCMV strain TB40/E fused to a …
Test: flow cytometry, processed data of FIG. 33

Going from B5 to B6, the “variation in binding relative to US28” value rises from -0.92 to -0.16.

For B7, the “variation in binding relative to US28” value was 0.14.

Each binder was assayed against T4, US28 of HCMV strain Merlin fused to a … (assay: flow cytometry, processed data of FIG. 33).

Going from B5 to B6, the “variation in binding relative to US28” value falls from 0.01 to -0.38.

In the case of B7, the “variation in binding relative to US28” value is reported as 0.21.

Biological target: T2, US28 of HCMV strain DB fused to a …
Test: flow cytometry, CHO-US28 against control CHO cells

Going from B1 to B3, the “binding specificity comparative to the specificity displayed by VUN100” value (“binding specificity comparative” below) falls from 4.6 fold to 2.29 fold.

For B4, the “binding specificity comparative” value was 1.74 fold.

Biological target: T2, US28 of HCMV strain DB fused to a …
Test: flow cytometry, CHO-US28 against control CHO cells
Remark: another data set of the same source

Going from B8 to B9, the “binding specificity comparative” value falls from 4.21 fold to 3.35 fold.

B10 was tested, and the “binding specificity comparative” value was 1.67 fold.

Biological target: T5, US28 of HCMV strain VHL/E fused to a …
Test: flow cytometry, processed data of FIG. 33; reference

B5 and B6 are the same in “variation in binding relative to US28” value: 0 for the first, 0 for the second.

In the case of B7, the “variation in binding relative to US28” value is reported as 0.

Biological target: T2, US28 of HCMV strain DB fused to a …
Test: flow cytometry, transfected HEK Phoenix cells, 6.76 nM

Going from B5 to B6, the “binding value (Preliminary Binding Data)” value falls from 1.04 to 0.37.

In the case of B7, the “binding value (Preliminary Binding Data)” value is reported as 0.91.

Biological target: T3, US28 of HCMV strain TB40/E fused to a …
Test: as above

Compared with B5, B6 is lower in “binding value (Preliminary Binding Data)” value: 0.57 for the first, 0.14 for the second.

In the case of B7, the “binding value (Preliminary Binding Data)” value is reported as 0.42.

Biological target: T5, US28 of HCMV strain VHL/E fused to a …
Test: as above

First: B5
Second: B6
The “binding value (Preliminary Binding Data)” value of the first is higher: 1.08 for the first, 0.16 for the second.

In the case of B7, the “binding value (Preliminary Binding Data)” value is reported as 0.37.

These binders were tested against T4, US28 of HCMV strain Merlin fused to a … in the same assay as above.

Going from B5 to B6, the “binding value (Preliminary Binding Data)” value falls from 1.09 to 0.12.

For B7, the “binding value (Preliminary Binding Data)” value was 0.45.
